The record followed here is IntAct's records for PubMed 14561633.

Sequences and labels used below:
B1: Transcription factor GLABRA 3 (Arabidopsis thaliana (Mouse-ear cress)), Q9FN69 (parent)
chain: MATGQNRTTVPENLKKHLAVSVRNIQWSYGIFWSVSASQSGVLEWGDGYYNGDIKTRKTIQASEIKADQLGLRRSEQLSELYESLSVAESSSSGVAAGSQVTRRASAAALSPEDLADTEWYYLVCMSFVFNIGEGMPGRTFANGEPIWLCNAHTADSKVFSRSLLAKSAAVKTVVCFPFLGGVVEIGTTEHITEDMNVIQCVKTSFLEAPDPYATILPARSDYHIDNVLDPQQILGDEIYAPMFSTEPFPTASPSRTTNGFDQEHEQVADDHDSFMTERITGGASQVQSWQLMDDELSNCVHQSLNSSDCVSQTFVEGAAGRVAYGARKSRVQRLGQIQEQQRNVKTLSFDPRNDDVHYQSVISTIFKTNHQLILGPQFRNCDKQSSFTRWKKSSSSSSGTATVTAPSQGMLKKIIFDVPRVHQKEKLMLDSPEARDETGNHAVLEKKRREKLNERFMTLRKIIPSINKIDKVSILDDTIEYLQELERRVQELESCRESTDTETRGTMTMKRKKPCDAGERTSANCANNETGNGKKVSVNNVGEAEPADTGFTGLTDNLRIGSFGNEVVIELRCAWREGVLLEIMDVISDLHLDSHSVQSSTGDGLLCLTVNCKHKGSKIATPGMIKEALQRVAWIC
partner: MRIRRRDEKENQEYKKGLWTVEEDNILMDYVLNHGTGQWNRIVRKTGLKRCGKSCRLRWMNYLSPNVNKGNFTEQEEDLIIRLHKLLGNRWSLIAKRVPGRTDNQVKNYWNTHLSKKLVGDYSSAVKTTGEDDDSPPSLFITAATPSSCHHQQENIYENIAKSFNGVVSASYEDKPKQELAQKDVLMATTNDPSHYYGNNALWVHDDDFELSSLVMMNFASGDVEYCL
B2: Transcription factor GLABRA 3 (Arabidopsis thaliana (Mouse-ear cress)), Q9FN69 (parent)
chain: B1 chain
partner: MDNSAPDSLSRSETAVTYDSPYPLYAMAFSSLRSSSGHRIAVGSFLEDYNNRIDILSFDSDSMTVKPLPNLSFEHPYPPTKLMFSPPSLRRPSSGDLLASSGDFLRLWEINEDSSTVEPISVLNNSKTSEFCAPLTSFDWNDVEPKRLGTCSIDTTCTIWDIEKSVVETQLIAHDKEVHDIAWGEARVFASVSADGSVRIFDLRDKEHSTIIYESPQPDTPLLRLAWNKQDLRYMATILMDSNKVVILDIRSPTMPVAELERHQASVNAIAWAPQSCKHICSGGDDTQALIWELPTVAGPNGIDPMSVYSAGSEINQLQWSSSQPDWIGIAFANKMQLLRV

The first experiment covers variants of B1. The following applies: with gl1_arath GL1, P27900.
On to L78F, for which the “effect of a mutation on the interaction” value is given as “decreasing interaction”.

Variants of B2 are the subject of another experiment. The following applies: with ttg1_arath TTG1, Q9XGN1.
On to L78F, for which the “effect of a mutation on the interaction” value is reported as “decreasing interaction”.
